In the supplement of paper PMC7125110:
± gives the standard error. For part of these data: Fewer inactive variants are shown than the library holds.

B1: glmS ribozyme (parent)
chain: AUAAAAGCGCCAGAACUACAGAAAUGUAGUUGACGAGGAGGAGGUUUAUCGAAUUUUCGGCGGAUGCCUCCAAA

What was measured:
Conditions in all cases: with glucosamine-6-phosphate
[1] = variants of: B1; assay: kcat; higher = faster cleavage; RNA array
Summary of the method: (§1)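 Weighted Michaelis–Menten fits across concentrations supplied kcat and KM, based on kobs from one- or two-exponential decay fits to normalised per-tile medians. The data came from barcoded ribozyme variants transcribed in situ by E. coli RNA polymerase on sequenced MiSeq chips and tracked at 37 °C by a hybridised Cy3 probe. Glucosamine-6-phosphate (40 μM to 10 mM) in HEPES/KCl/Mg(OAc)2 buffer was flowed in.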

[2] = variants of: B1; assay: self-cleavage kobs at 640 uM GlcN6P; higher = faster cleavage; RNA array
Summary of the method: as §1

[3] = variants of: B1; assay: KM; higher = weaker cofactor use; RNA array
Summary of the method: as §1

[4] = variants of: B1; assay: self-cleavage kobs at 40 uM GlcN6P; higher = faster cleavage; RNA array
Summary of the method: as §1

[5] = variants of: B1; assay: self-cleavage kobs at 2500 uM GlcN6P; higher = faster cleavage; RNA array
Summary of the method: as §1

[6] = variants of: B1; assay: self-cleavage kobs at 10000 uM GlcN6P; higher = faster cleavage; RNA array
Summary of the method: as §1

[7] = variants of: B1; assay: self-cleavage kobs at 160 uM GlcN6P; higher = faster cleavage; RNA array
Summary of the method: as §1

Variant	kcat [1]	self-cleavage kobs at 640 uM GlcN6P [2]	KM [3]	self-cleavage kobs at 40 uM GlcN6P [4]	self-cleavage kobs at 2500 uM GlcN6P [5]	self-cleavage kobs at 10000 uM GlcN6P [6]	self-cleavage kobs at 160 uM GlcN6P [7]
G13C A14C C61A C67U	3.08e-05 ± 1.3e-05 s⁻¹	4.47e-05 ± 1.8e-05 s⁻¹	–	–	–	–	–
G13A G40C	5.83e-05 ± 8.4e-06 s⁻¹	–	2.94 ± 1.1 mM	< 1e-05 s⁻¹	2.55e-05 ± 7.4e-06 s⁻¹	4.56e-05 ± 9.9e-06 s⁻¹	–
G13A G40A	0.000179 ± 1.9e-05 s⁻¹	–	6.1 ± 1.2 mM	–	5.48e-05 ± 1.2e-05 s⁻¹	0.00011 ± 1.8e-05 s⁻¹	–
G13A G21U G37U C70U	< 1e-05 s⁻¹	–	–	–	< 1e-05 s⁻¹	–	–
A12U U46A	0.00538 ± 0.00031 s⁻¹	0.00161 ± 0.00033 s⁻¹	1.72 ± 0.14 mM	0.000119 ± 1.5e-05 s⁻¹	0.00326 ± 0.0006 s⁻¹	0.0045 ± 0.00062 s⁻¹	–
G13U G51A	< 1e-05 s⁻¹	< 1e-05 s⁻¹	–	–	< 1e-05 s⁻¹	< 1e-05 s⁻¹	–
G13C A15U	0.000131 ± 1.4e-05 s⁻¹	3.78e-05 ± 1e-05 s⁻¹	2.81 ± 0.94 mM	–	5.63e-05 ± 7.5e-06 s⁻¹	0.000103 ± 6.3e-06 s⁻¹	–
G13C A15G	0.000223 ± 1.1e-05 s⁻¹	4.12e-05 ± 8e-06 s⁻¹	2.95 ± 0.27 mM	–	9.91e-05 ± 1.3e-05 s⁻¹	0.000176 ± 2.8e-05 s⁻¹	–
G13C U56G	0.000107 ± 9.4e-06 s⁻¹	–	2.86 ± 0.82 mM	–	5.37e-05 ± 1.7e-05 s⁻¹	8.26e-05 ± 1.2e-05 s⁻¹	–
G13U C70G	4.04e-05 ± 3e-06 s⁻¹	4.63e-05 ± 9.7e-06 s⁻¹	–	–	3.94e-05 ± 6.3e-06 s⁻¹	3.71e-05 ± 6.7e-06 s⁻¹	–
G13A G29U	5.33e-05 ± 7.9e-06 s⁻¹	–	–	–	4.84e-05 ± 1e-05 s⁻¹	4.7e-05 ± 8e-06 s⁻¹	–
G13U A48U	< 1e-05 s⁻¹	–	–	–	–	–	< 1e-05 s⁻¹
G13A C16A	0.000316 ± 9.2e-06 s⁻¹	–	–	–	4.78e-05 ± 7.4e-06 s⁻¹	0.000132 ± 1.9e-05 s⁻¹	–
G13U U30A	5.44e-05 ± 3.6e-06 s⁻¹	3.03e-05 ± 1.5e-05 s⁻¹	0.728 ± 0.26 mM	–	3.78e-05 ± 1.1e-05 s⁻¹	5.22e-05 ± 8.6e-06 s⁻¹	–
G13U U30C	0.000509 ± 0.00014 s⁻¹	6.12e-05 ± 1.2e-05 s⁻¹	3.53 ± 1.6 mM	–	0.000253 ± 3.1e-05 s⁻¹	0.000354 ± 4.9e-05 s⁻¹	3.75e-05 ± 1e-05 s⁻¹
G13C C68U	< 1e-05 s⁻¹	< 1e-05 s⁻¹	–	< 1e-05 s⁻¹	–	–	< 1e-05 s⁻¹
G13C U31A	0.000405 ± 2e-05 s⁻¹	7.16e-05 ± 1.3e-05 s⁻¹	3.1 ± 0.28 mM	–	0.00017 ± 3.3e-05 s⁻¹	0.000314 ± 4.2e-05 s⁻¹	–
G13C A14G	0.00129 ± 0.00022 s⁻¹	0.000189 ± 2.5e-05 s⁻¹	3.98 ± 0.95 mM	–	0.000557 ± 7.3e-05 s⁻¹	0.000855 ± 0.00013 s⁻¹	4.16e-05 ± 8.8e-06 s⁻¹

Variant	kcat [1]	self-cleavage kobs at 640 uM GlcN6P [2]	KM [3]	self-cleavage kobs at 40 uM GlcN6P [4]	self-cleavage kobs at 2500 uM GlcN6P [5]	self-cleavage kobs at 10000 uM GlcN6P [6]	self-cleavage kobs at 160 uM GlcN6P [7]
G13C A48G	< 1e-05 s⁻¹	–	–	–	< 1e-05 s⁻¹	< 1e-05 s⁻¹	–
G13C A42G	0.00017 ± 1.8e-05 s⁻¹	3.16e-05 ± 1.6e-05 s⁻¹	4.03 ± 0.92 mM	< 1e-05 s⁻¹	6.19e-05 ± 1.3e-05 s⁻¹	0.000123 ± 1.8e-05 s⁻¹	–
G13U A14G C61A	1.4e-05 ± 5.4e-06 s⁻¹	–	–	< 1e-05 s⁻¹	–	–	–
G13U C71A	0.000178 ± 1.7e-05 s⁻¹	5.95e-05 ± 1.2e-05 s⁻¹	1.13 ± 0.3 mM	–	0.000151 ± 2.5e-05 s⁻¹	0.000154 ± 1.8e-05 s⁻¹	–
G13C A52G	1.51e-05 ± 1.5e-06 s⁻¹	–	3.66 ± 1 mM	–	–	–	–
G13U U31A	0.000483 ± 4.9e-05 s⁻¹	6.93e-05 ± 1.3e-05 s⁻¹	3.73 ± 0.74 mM	–	0.000216 ± 3.6e-05 s⁻¹	0.000346 ± 3.6e-05 s⁻¹	–
G13U C61A	1.33e-05 ± 2.2e-06 s⁻¹	–	–	–	–	–	–
G13C U47A G59U C67G	1.81e-05 ± 2.9e-06 s⁻¹	< 1e-05 s⁻¹	–	–	–	–	–
G13A A39G C61G C70A	< 1e-05 s⁻¹	–	–	–	–	–	–
G13A U55G C71G	4.93e-05 ± 1.6e-05 s⁻¹	–	–	< 1e-05 s⁻¹	7.49e-05 ± 2.8e-05 s⁻¹	4.08e-05 ± 1.6e-05 s⁻¹	–
A12U U57A	0.00082 ± 0.00011 s⁻¹	0.000113 ± 2e-05 s⁻¹	4.04 ± 0.88 mM	–	0.000287 ± 5e-05 s⁻¹	0.000604 ± 8.4e-05 s⁻¹	4.56e-05 ± 1.7e-05 s⁻¹
G13A C71U	0.00103 ± 0.00012 s⁻¹	0.000138 ± 2e-05 s⁻¹	4.73 ± 0.92 mM	–	0.000358 ± 5.1e-05 s⁻¹	0.000698 ± 5.9e-05 s⁻¹	2.52e-05 ± 8.2e-06 s⁻¹
G13A A15G	0.000875 ± 0.00018 s⁻¹	0.000327 ± 5.6e-05 s⁻¹	1.84 ± 0.67 mM	–	0.000431 ± 7.3e-05 s⁻¹	0.000784 ± 0.00011 s⁻¹	6.23e-05 ± 1.3e-05 s⁻¹
G13A A15U	0.00015 ± 1.5e-05 s⁻¹	–	3.53 ± 1.1 mM	–	6.03e-05 ± 2.6e-05 s⁻¹	0.000111 ± 1.5e-05 s⁻¹	–
G13A C70U	0.000795 ± 0.00019 s⁻¹	0.000154 ± 1.7e-05 s⁻¹	2.41 ± 0.87 mM	–	0.000388 ± 6.1e-05 s⁻¹	0.000676 ± 9.5e-05 s⁻¹	7.83e-05 ± 1.4e-05 s⁻¹
G13C C70U	0.000154 ± 4.9e-06 s⁻¹	4.57e-05 ± 8.9e-06 s⁻¹	1.4 ± 0.14 mM	–	0.000103 ± 1.2e-05 s⁻¹	0.000134 ± 1e-05 s⁻¹	–
G13C C70A	1.11e-05 ± 3.3e-06 s⁻¹	–	–	–	–	–	–
G13U C58G	0.000545 ± 0.00027 s⁻¹	9.89e-05 ± 1.6e-05 s⁻¹	–	–	0.000127 ± 2e-05 s⁻¹	0.000381 ± 3.9e-05 s⁻¹	–
